Laboratory results reported in patent publication US20220017591A1 (AstraZeneca / MedImmune, published 2022).
Where two headings read alike, the source gives them in different places.

T1: mouse RXFP1 (mouse, UniProt Q6R6I7 1-758)
T1 sequence (looked up): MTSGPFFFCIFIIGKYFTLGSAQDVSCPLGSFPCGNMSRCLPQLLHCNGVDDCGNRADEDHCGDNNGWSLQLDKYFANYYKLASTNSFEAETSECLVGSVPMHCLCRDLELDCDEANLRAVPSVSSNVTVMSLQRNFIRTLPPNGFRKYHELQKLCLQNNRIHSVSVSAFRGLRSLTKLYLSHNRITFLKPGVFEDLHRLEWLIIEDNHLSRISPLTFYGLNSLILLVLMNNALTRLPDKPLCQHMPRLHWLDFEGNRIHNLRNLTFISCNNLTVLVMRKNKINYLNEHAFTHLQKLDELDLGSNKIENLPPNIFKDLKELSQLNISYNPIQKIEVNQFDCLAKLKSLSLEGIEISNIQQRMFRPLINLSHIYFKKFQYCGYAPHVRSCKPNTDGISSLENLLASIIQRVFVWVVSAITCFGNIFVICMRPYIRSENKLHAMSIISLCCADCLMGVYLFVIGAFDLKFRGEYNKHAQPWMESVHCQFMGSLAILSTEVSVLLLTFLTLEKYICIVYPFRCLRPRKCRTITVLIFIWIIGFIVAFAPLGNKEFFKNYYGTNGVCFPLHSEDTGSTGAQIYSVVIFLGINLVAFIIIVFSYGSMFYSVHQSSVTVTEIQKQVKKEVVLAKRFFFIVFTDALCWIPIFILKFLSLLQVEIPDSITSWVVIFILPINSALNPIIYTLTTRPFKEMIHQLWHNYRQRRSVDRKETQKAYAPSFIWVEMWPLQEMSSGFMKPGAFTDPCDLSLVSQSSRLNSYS

T2: human RXFP1 (human, UniProt Q9HBX9 1-757)
T2 sequence (looked up): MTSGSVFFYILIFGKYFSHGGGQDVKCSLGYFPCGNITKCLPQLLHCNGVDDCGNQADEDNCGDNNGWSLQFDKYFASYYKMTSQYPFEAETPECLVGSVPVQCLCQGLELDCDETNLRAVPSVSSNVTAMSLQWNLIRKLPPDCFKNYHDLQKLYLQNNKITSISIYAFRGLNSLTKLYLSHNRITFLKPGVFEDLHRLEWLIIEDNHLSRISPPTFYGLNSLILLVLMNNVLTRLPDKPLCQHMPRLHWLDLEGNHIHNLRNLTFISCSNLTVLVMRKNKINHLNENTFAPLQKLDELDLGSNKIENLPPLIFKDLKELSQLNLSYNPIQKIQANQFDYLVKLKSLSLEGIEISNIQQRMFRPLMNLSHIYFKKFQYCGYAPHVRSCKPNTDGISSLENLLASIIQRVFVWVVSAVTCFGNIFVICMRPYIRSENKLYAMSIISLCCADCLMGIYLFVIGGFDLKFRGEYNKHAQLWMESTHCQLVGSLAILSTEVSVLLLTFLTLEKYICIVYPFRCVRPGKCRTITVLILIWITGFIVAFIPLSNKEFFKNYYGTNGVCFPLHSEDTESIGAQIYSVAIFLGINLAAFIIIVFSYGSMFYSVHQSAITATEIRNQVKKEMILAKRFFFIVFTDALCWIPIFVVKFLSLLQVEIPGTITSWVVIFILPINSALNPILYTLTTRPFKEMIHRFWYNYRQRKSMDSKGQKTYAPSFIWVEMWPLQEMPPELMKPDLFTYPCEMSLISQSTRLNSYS


How the values were obtained:
Assay in all cases: cell-based or functional assay
human RXFP2 [1] = target: T3, human RXFP2 (human, UniProt Q8WXD0 1-754)
T3 sequence (Q8WXD0 whole entry): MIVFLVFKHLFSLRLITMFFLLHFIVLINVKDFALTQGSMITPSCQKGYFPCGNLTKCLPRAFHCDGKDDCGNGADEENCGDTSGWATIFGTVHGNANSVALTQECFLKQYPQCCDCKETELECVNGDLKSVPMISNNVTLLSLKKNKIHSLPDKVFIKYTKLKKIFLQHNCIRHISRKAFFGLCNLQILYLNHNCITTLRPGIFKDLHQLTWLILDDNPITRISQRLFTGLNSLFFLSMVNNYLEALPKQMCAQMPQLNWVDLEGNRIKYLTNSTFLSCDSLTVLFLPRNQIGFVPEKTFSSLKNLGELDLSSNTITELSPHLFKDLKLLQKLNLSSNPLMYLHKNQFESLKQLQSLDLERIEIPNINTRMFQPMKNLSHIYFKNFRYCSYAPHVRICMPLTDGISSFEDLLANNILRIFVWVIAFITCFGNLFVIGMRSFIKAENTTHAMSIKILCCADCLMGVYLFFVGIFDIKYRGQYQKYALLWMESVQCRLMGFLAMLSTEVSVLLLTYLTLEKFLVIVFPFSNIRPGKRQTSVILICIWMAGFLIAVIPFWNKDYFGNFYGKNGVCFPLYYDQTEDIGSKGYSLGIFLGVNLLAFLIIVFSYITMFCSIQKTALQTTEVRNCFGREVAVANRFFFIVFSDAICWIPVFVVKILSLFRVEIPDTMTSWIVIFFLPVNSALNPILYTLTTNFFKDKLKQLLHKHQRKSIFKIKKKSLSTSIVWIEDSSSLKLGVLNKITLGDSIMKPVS

mouse RXFP1 [2] = target: T1, mouse RXFP1
human RXFP1 [3] = target: T2, human RXFP1
human RXFP2 [4] = target: T3, human RXFP2; remark: listed apart in the source
mouse RXFP1 [5] = target: T1, mouse RXFP1; remark: listed apart in the source
human RXFP1 [6] = target: T2, human RXFP1; remark: listed apart in the source
human RXFP2 [7] = target: T3, human RXFP2; remark: listed apart in the source
mouse RXFP1 [8] = target: T1, mouse RXFP1; remark: listed apart in the source
human RXFP1 [9] = target: T2, human RXFP1; remark: listed apart in the source

Binder	EC50 hRXFP2 (M), cAMP assay (human RXFP2 [1]) [M]	EC50 mRXFP1 (M), cAMP assay (mouse RXFP1 [2]) [M]	EC50 hRXFP1 (M), cAMP assay (human RXFP1 [3]) [M]	EC50 hRXFP2 (M), cAMP assay (human RXFP2 [4]) [M]	EC50 mRXFP1 (M), cAMP assay (mouse RXFP1 [5]) [M]	EC50 hRXFP1 (M), cAMP assay (human RXFP1 [6]) [M]	EC50 hRXFP2 (M), cAMP assay (human RXFP2 [7]) [M]	EC50 mRXFP1 (M), cAMP assay (mouse RXFP1 [8]) [M]	EC50 hRXFP1 (M), cAMP assay (human RXFP1 [9]) [M]
RELAX0014 (recombinant murine Relaxin-1) (ligand) chain 1: MRVSEEWMDGFIRMCGREYARELIKICGASVGR chain 2: ESGGLMSQQCCHVGCSRRSIAKLYC	1.78e-12	2.37e-12	4.47e-12	1.78e-12	2.37e-12	4.47e-12	1.78e-12	2.37e-12	4.47e-12
RELAX0013 (recombinant human Relaxin-2) (ligand) chain 1: DSWMEEVIKLCGRELVRAQIAICGMSTWS chain 2: QLYSALANKCCHVGCTKRSLARFC	1.75e-09	7.54e-13	1.15e-12	1.75e-09	7.54e-13	1.15e-12	1.75e-09	7.54e-13	1.15e-12

Next, values leading:

EC50 hRXFP2 (M), cAMP assay (human RXFP2 [1]) [M]	EC50 mRXFP1 (M), cAMP assay (mouse RXFP1 [2]) [M]	EC50 hRXFP1 (M), cAMP assay (human RXFP1 [3]) [M]	EC50 hRXFP2 (M), cAMP assay (human RXFP2 [4]) [M]	EC50 mRXFP1 (M), cAMP assay (mouse RXFP1 [5]) [M]	EC50 hRXFP1 (M), cAMP assay (human RXFP1 [6]) [M]	EC50 hRXFP2 (M), cAMP assay (human RXFP2 [7]) [M]	EC50 mRXFP1 (M), cAMP assay (mouse RXFP1 [8]) [M]	EC50 hRXFP1 (M), cAMP assay (human RXFP1 [9]) [M]	Binder
3.24e-08	3.27e-11	3.77e-11	4.2e-08	1.36e-11	3.32e-11				RELAX0023 (Fc fusion) chain 1: DKTHTCPPCPAPEFEGGPSVFLFPPKPKDTLMISRTPEVTCVVVDVSHEDPEVKFNWYVDGVEVHNAKTKPREEQYNSTYRVVSVLTVLHQDWLNGKEYKCKVSNKALPASIEKTISKAKGQPREPQVYTLPPCREEMTKNQVSLWCLVKGFYPSDIAVEWESNGQPENNYKTTPPVLDSDGSFFLYSKLTVDKSRWQQGNVFSCSVMHEALHNHYTQKSLSLSPGGGGGSGGGGSGGGGSGGGGGSQLYSALANKCCHVGCTKRSLARFC chain 2: DKTHTCPPCPAPEFEGGPSVFLFPPKPKDTLMISRTPEVTCVVVDVSHEDPEVKFNWYVDGVEVHNAKTKPREEQYNSTYRVVSVLTVLHQDWLNGKEYKCKVSNKALPASIEKTISKAKGQPREPQVCTLPPSREEMTKNQVSLSCAVKGFYPSDIAVEWESNGQPENNYKTTPPVLDSDGSFFLVSKLTVDKSRWQQGNVFSCSVMHEALHNHYTQKSLSLSPGGGGGSGGGGSGGGGSGGGGGSSWMEEVIKLCGRELVRAQIAICGMSTWS
3.42e-08	9.1e-12	3.57e-11	4.4e-08	2.24e-11	5.81e-11	4.4e-08	2.24e-11	5.81e-11	RELAX0019 (Fc fusion) chain 1: GGAGGACPPCPAPEFEGGPSVFLFPPKPKDTLMISRTPEVTCVVVDVSHEDPEVKFNWYVDGVEVHNAKTKPREEQYNSTYRVVSVLTVLHQDWLNGKEYKCKVSNKALPASIEKTISKAKGQPREPQVYTLPPCREEMTKNQVSLWCLVKGFYPSDIAVEWESNGQPENNYKTTPPVLDSDGSFFLYSKLTVDKSRWQQGNVFSCSVMHEALHNHYTQKSLSLSPGGGGGSGGGGSGGGGSGGGGGSQLYSALANKCCHVGCTKRSLARFC chain 2: GGAGGACPPCPAPEFEGGPSVFLFPPKPKDTLMISRTPEVTCVVVDVSHEDPEVKFNWYVDGVEVHNAKTKPREEQYNSTYRVVSVLTVLHQDWLNGKEYKCKVSNKALPASIEKTISKAKGQPREPQVCTLPPSREEMTKNQVSLSCAVKGFYPSDIAVEWESNGQPENNYKTTPPVLDSDGSFFLVSKLTVDKSRWQQGNVFSCSVMHEALHNHYTQKSLSLSPGGGGGSGGGGSGGGGSGGGGGSSWMEEVIKLCGRELVRAQIAICGMSTWS
